Experimental data taken from patent EP1214598B1.
No end group written: not given here.

Target: PHF43 (tau fragment generated by GluC digestion of K19, 43 residues) (human)
Test: disulfide dimerization via Cys322, after reverse phase HPLC

dimer fraction: 100%
B1: PHF43 (tau fragment generated by GluC digestion of K19, 43 residues) (peptide)
peptide: NLKHQPGGGKVQIVYKPVDLSKVTSKCGSLGNIHHKPGGGQVE
modifications: also: dimer via Cys322-Cys322 disulfide (without DTT)
